Measured values published in patent US6369237.

Target: T1, MutY adenine DNA glycosylase (UniProt P17802)
T1 sequence: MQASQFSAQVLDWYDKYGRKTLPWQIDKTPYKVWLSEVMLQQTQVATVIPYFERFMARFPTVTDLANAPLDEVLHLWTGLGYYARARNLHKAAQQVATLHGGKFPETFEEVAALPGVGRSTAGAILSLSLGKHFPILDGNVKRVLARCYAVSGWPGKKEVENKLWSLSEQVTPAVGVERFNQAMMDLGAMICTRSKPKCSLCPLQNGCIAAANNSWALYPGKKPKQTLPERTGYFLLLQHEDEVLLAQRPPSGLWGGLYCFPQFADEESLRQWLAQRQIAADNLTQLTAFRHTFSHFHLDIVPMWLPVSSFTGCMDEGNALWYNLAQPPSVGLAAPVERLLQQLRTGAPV
Assay: EMSA
Conditions: pyrrolidine residue lacking a base (inhibitor 1); at least 20 times higher than 2a

Substance pyrrolidine (inhibitor 1) abasic duplex has a Kd of 0.065 nM.
